Kd data for three substances are collected here from article PMC3570467.

A value given as a limit tells only on which side of the number the result lay.

The target in this test is a representative mIgG1 mAb (used for the KD determinations; not told which) (mouse). The experiment in a line: SPR; BIAcore 2000; mIgG1 mAb immobilised on CM-5; Z variants serially diluted 250 nM to 64 µM; KD for 1:1 interaction from equilibrium response values. In general terms: In SPR one partner is held on a chip, and binding of the other changes the refractive index at the surface.
The Kd is the constant that tells how readily two partners part at equilibrium. In turn, “ZF5I, Z domain variant with Phe to Ile substitution at position 5 (designed binder)” yielded an equilibrium dissociation constant (Kd) of 10 µM.
The same measure for “ZF5R, Z domain variant with F5R substitution (designed binder)”: 10 µM; for “wild type Z domain (ZWT), staphylococcal protein A-derived 58-residue three-helix bundle domain (designed binder)”: over 100 µM.
